Measurements from patent US20240116985A1 (published 2024).
Starred links: 1 amine or outer side, 2 acyl side, 3 side chain; linkers in the order of their positions; H or OH if unused. Positions of bridges follow the written chain, without caps; N, C: chain ends. Non-standard residues stand in square brackets, D forms with d. Primed or numbered codes have the meaning given here. PyrS2″ = (S)-3-amino-1-((pent-4-en-1-yloxy)carbonyl)pyrrolidine-3-carboxylic acid (stapling residue), C=CCCCOC(=O)N1CC[C@@](N[*:1])(C(=O)[*:2])C1; B5(4) = 2,2-bis(4-pentenyl)glycine = 2-amino-2-(pent-4-en-1-yl)hept-6-enoic acid (stitching residue), C=CCCCC(CCCC=C)(N[*:1])C(=O)[*:2]; TfeGA = (S)-2-amino-3-((carboxymethyl)(2,2,2-trifluoroethyl)amino)propanoic acid, O=C([C@H](CN(CC(=O)[*:3])CC(F)(F)F)N[*:1])[*:2]; PyrS2 = (S)-3-amino-1-((pent-4-en-1-yloxy)carbonyl)pyrrolidine-3-carboxylic acid, C=CCCCOC(=O)N1CC[C@@](N[*:1])(C(=O)[*:2])C1; (EtSSPh)AspE = (S)-2-amino-4-oxo-4-(2-(phenyldisulfaneyl)ethoxy)butanoic acid, O=C(C[C@H](N[*:1])C(=O)[*:2])OCCSSc1ccccc1; B5(27) = 2-amino-2-(pent-4-en-1-yl)hept-6-enoic acid (two alkene side-chain arms), C=CCCCC(CCCC=C)(N[*:1])C(=O)[*:2]; B5(19) = 2-amino-2-(pent-4-en-1-yl)hept-6-enoic acid (bis(4-pentenyl)glycine), C=CCCCC(CCCC=C)(N[*:1])C(=O)[*:2]; MePpzAsn = (S)-2-amino-4-(4-methylpiperazin-1-yl)-4-oxobutanoic acid, CN1CCN(C(=O)C[C@H](N[*:1])C(=O)[*:2])CC1; (Ppz)GlnR = (S)-2-amino-5-oxo-5-(piperazin-1-yl)pentanoic acid, O=C(CC[C@H](N[*:1])C(=O)[*:2])N1CCN([*:3])CC1; MorphAsn = (S)-2-amino-4-morpholino-4-oxobutanoic acid, O=C(C[C@H](N[*:1])C(=O)[*:2])N1CCOCC1; B5(3) = 2,2-bis(4-pentenyl)glycine (stitching residue), C=CCCCC(CCCC=C)(N[*:1])C(=O)[*:2]; MorphAbu = (S)-2-amino-4-morpholinobutanoic acid, O=C([C@H](CCN1CCOCC1)N[*:1])[*:2]; Phe(4-(3-Py)) = N[C@@H](Cc1ccc(-c2cccnc2)cc1)C(=O)O; Nva(5-morpholino) = N[C@@H](CCCN1CCOCC1)C(=O)O; Phe(2-Cl) = N[C@@H](Cc1ccccc1Cl)C(=O)O; 1Nal = N[C@@H](Cc1cccc2ccccc12)C(=O)O; 2Nal = N[C@@H](Cc1ccc2ccccc2c1)C(=O)O; Bta = N[C@@H](Cc1csc2ccccc12)C(=O)O; αAllylPro = C=CC[C@@]1(C(=O)O)CCCN1; tBuAla = CC(C)(C)C[C@H](N)C(=O)O; 3Thi = N[C@@H](Cc1ccsc1)C(=O)O; TfeGA″ = not defined here

Tests used:
Experiment in all cases: cell-based or functional assay
[1] = biological target: T1, B-cat-Halo (beta-catenin HaloTag fusion expressed in HEK293 cells) (UniProt P35222 1-781, HaloTag labelled with HaloTag NanoBRET 618 Ligand)
T1 sequence (looked up): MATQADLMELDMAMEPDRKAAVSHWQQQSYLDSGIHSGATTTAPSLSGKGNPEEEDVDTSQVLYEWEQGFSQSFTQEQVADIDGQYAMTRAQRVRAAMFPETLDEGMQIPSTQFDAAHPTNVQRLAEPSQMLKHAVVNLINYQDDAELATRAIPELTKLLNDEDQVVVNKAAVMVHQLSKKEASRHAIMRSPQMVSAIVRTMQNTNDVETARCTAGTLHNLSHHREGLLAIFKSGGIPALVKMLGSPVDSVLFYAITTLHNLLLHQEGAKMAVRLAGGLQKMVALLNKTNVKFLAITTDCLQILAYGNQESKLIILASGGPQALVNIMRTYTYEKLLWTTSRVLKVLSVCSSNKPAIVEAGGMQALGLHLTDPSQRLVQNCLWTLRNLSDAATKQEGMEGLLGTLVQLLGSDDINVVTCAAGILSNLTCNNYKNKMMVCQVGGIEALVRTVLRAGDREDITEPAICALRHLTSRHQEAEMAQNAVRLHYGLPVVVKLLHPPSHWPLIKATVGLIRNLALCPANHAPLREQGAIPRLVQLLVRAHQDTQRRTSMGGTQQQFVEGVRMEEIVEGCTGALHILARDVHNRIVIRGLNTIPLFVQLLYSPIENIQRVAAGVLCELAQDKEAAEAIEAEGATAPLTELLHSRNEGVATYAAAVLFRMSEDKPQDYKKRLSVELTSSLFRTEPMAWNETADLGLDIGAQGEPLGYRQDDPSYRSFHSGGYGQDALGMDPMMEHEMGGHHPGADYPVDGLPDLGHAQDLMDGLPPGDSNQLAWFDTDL

[2] = biological target: T2, B-cat-Halo (beta-catenin HaloTag fusion construct expressed in HEK293 cells) (UniProt P35222 1-781)
T2 sequence (looked up): T1 sequence (looked up)

[3] = biological target: T3, B-cat-Halo (beta-catenin HaloTag NanoBRET construct expressed in HEK293 cells) (UniProt P35222 1-781)
T3 sequence (looked up): T1 sequence (looked up)

Binder | NanoBRET Abs IC50 [1] [µM] | NanoBRET Abs IC50 [2] [µM] | also measured
Ac-[αAllylPro]D[tBuAla][B5(27)]DDA[MorphAbu]FL[PyrS2][3Thi][Bta]Q-NH2 (staple 1-4, 4-11) [I-1504] | > 20 |  | 
Ac-[αAllylPro]D[1Nal][B5(3)]DDAAFL[PyrS2″][Phe(2-Cl)][Bta]Q-NH2 (staple 1-4, 4-11) [I-1110] |  | > 20 | 
Ac-[αAllylPro]D[2Nal][B5(3)]DDAAFL[PyrS2″][2C1F][Bta]Q-NH2 (staple 1-4, 4-11) [I-1111] |  | > 20 | 
Ac-[αAllylPro]D[2Nal][B5(3)]DDAAFS[PyrS2″][Phe(2-Cl)][Bta]Q-NH2 (staple 1-4, 4-11) [I-1109] |  | > 20 | 
Ac-[αAllylPro]D[1Nal][B5(3)]DDAAFT[PyrS2″][Phe(2-Cl)][Bta]S-NH2 (staple 1-4, 4-11) [I-1114] |  | > 20 | 
Ac-[αAllylPro]D[tBuAla][B5(3)]DD[MePpzAsn]AFL[PyrS2″][3Thi][Bta]Q-NH2 (staple 1-4, 4-11) [I-1484] | > 20 |  | 
Ac-[αAllylPro]D[tBuAla][B5(3)]DDAAF[Nva(5-morpholino)][PyrS2″][3Thi][Bta]Q-NH2 (staple 1-4, 4-11) [I-1485] | 25.8 |  | 
Ac-[αAllylPro]D[tBuAla][B5(27)]DDA[Nva(5-morpholino)]FL[PyrS2][3Thi][Bta]Q-NH2 (staple 1-4, 4-11) [I-1501] | > 20 |  | 
Ac-[αAllylPro]D[tBuAla][B5(3)]DD[Phe(4-(3-Py))]AFL[PyrS2″]F[Bta]Q-NH2 (staple 1-4, 4-11) [I-1489] | 9.2 |  | 
Ac-[αAllylPro][(EtSSPh)AspE][tBuAla][B5(4)]DDAAFL[PyrS2″][3Thi][Bta]Q-NH2 (staple 1-4, 4-11; also: isomer composition, earlier eluting HPLC peak) [I-1952] |  |  | NanoBRET Abs IC50 [3]: > 20 µM
Ac-[αAllylPro]D[1Nal][B5(3)]DDAAFS[PyrS2″][Phe(2-Cl)][Bta]Q-NH2 (staple 1-4, 4-11) [I-1108] |  | > 20 | 
Ac-[αAllylPro]D[tBuAla][B5(4)]D[TfeGA″]AAF[(NHBn)GlnR][PyrS2″][3Thi][Bta]Q-NH2 (staple 1-4, 4-11; reading uncertain) [I-1942] |  |  | NanoBRET Abs IC50 [3]: 7.9 µM
Ac-[αAllylPro]D[tBuAla][B5(27)]DDAAFL[PyrS2][3Thi][Bta]W-NH2 (staple 1-4, 4-11) [I-1497] | 11.4 |  | 
Ac-[αAllylPro]D[tBuAla][B5(3)]DDAAF[MorphAsn][PyrS2″][3Thi][Bta]Q-NH2 (staple 1-4, 4-11) [I-1487] | 21.5 |  | 
Ac-[αAllylPro]D[tBuAla][B5(19)]D[TfeGA]AAF[(Ppz)GlnR][PyrS2″][3Thi][Bta]Q-NH2 (staple 1-4, 4-11) [I-1941] |  |  | NanoBRET Abs IC50 [3]: 12.9 µM
Ac-[αAllylPro]D[tBuAla][B5(3)]DDAAFL[PyrS2″][3Thi][Bta]N-NH2 (staple 1-4, 4-11) [I-1492] | 7.3 |  | 
